PMC5314801 (Nucleic Acids Research, 2016)

T1: RsaL (crystal) (UniProt Q9X7H4 1-80)
T1 sequence: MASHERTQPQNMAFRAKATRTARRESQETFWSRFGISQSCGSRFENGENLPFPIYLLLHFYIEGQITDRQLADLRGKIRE

B1: lasI promoter crystal duplex DNA_F/DNA_R (dsDNA)
DNA 1: AAAAATTATGAAATTTGCATAAATTC
DNA 2: TGAATTTATGCAAATTTCATAATTTT
B2: RsaL (natural protein, Pseudomonas aeruginosa, UniProt Q9X7H4 1-80, looked up)
chain: MASHERTQPQNMAFRAKATRTARRESQETFWSRFGISQSCGSRFENGENLPFPIYLLLHFYIEGQITDRQLADLRGKIRE
B3: RsaL with Glu45 mutated to Ala (natural protein, Pseudomonas aeruginosa, UniProt Q9X7H4 1-80, looked up)
chain: MASHERTQPQNMAFRAKATRTARRESQETFWSRFGISQSCGSRFANGENLPFPIYLLLHFYIEGQITDRQLADLRGKIRE
B4: RsaL^Q38A (natural protein, Pseudomonas aeruginosa, UniProt Q9X7H4 1-80, looked up)
chain: MASHERTQPQNMAFRAKATRTARRESQETFWSRFGISASCGSRFENGENLPFPIYLLLHFYIEGQITDRQLADLRGKIRE
B5: RsaL^R43A (natural protein, Pseudomonas aeruginosa, UniProt Q9X7H4 1-80, looked up)
chain: MASHERTQPQNMAFRAKATRTARRESQETFWSRFGISQSCGSAFENGENLPFPIYLLLHFYIEGQITDRQLADLRGKIRE
B6: RsaL^Q27A (natural protein, Pseudomonas aeruginosa, UniProt Q9X7H4 1-80, looked up)
chain: MASHERTQPQNMAFRAKATRTARRESAETFWSRFGISQSCGSRFENGENLPFPIYLLLHFYIEGQITDRQLADLRGKIRE
B7: RsaL R20A (natural protein, Pseudomonas aeruginosa, UniProt Q9X7H4 1-80, looked up)
chain: MASHERTQPQNMAFRAKATATARRESQETFWSRFGISQSCGSRFENGENLPFPIYLLLHFYIEGQITDRQLADLRGKIRE

Assays:
RsaL (crystal) = molecular target: T1, RsaL (crystal); experiment: X-ray crystallography
crystal structure = molecular target: the molecule itself; experiment: crystal structure
SEC = molecular target: the molecule itself; experiment: SEC

Binder	stoichiometry N (SEC)	also measured
B1	–	binding result (RsaL (crystal)): binds
B2	–	binding result (crystal structure): binds
B3	2	–
B4	2	–
B5	2	–
B6	2	–
B7	2	–
